Measurements reported in publication PMC3598503 (2013).
Bridges are numbered along the chain shown (N, C = ends). Where no end group is shown, it is not given here.

Target: T1, p32 (Homo sapiens, UniProt Q07021)
T1 chain: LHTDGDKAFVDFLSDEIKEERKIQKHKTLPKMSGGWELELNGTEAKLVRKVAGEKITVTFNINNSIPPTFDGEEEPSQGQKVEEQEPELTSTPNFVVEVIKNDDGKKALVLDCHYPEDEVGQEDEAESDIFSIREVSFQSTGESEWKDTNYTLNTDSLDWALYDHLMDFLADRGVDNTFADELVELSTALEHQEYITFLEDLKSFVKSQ
Test: SPR

B1: Lyp-1 (peptide)
chain: CGNKRTRGC
modifications: disulfide 1-9
- Kd: 10.6 nM
